From patent US20180051287, “COMPOSITIONS AND METHODS FOR INHIBITING FACTOR D” (Vitrisa Therapeutics, Inc., published 2018)

Assays:
[1] = biological target: T1, complement factor D (fD) (Homo sapiens, UniProt P00746 SEQ:1-228); experiment: FP filter; not above naive library (3.6%); 100 nM DNA, 5 uM fD; details: tags: 6xHis, label: end-labeled
Method: (§1) Specificity of binding was assessed by measuring binding to casein. In all binding reactions, the oligonucleotide concentration was 100 nM, the fD concentration 5 μM and the casein concentration 20 μM.

[2] = biological target: T1, complement factor D (fD); experiment: inhibition; alternative-pathway hemolysis of rabbit RBC, C1q-depleted human serum, room temperature; details: protein: extract; tags: endogenous fD in C1q-depleted human serum; label: Dy650-N30S.R.OMe 2'-OMe oligo hybridized to 3' constant region (flow assays)
Method: Briefly, citrated rabbit blood was centrifuged at 500×g for 5 minutes at room temperature. The top plasma fraction was removed and the volume was replaced with 1× Veronal buffer containing 0.1% gelatin (prepared from 5× Veronal buffer, Lonza #12-624E and 2% gelatin solution, Sigma-Aldrich, G1393). The red blood cells were washed two more times. The washed rabbit red blood cells were diluted in 1× Veronal buffer to a concentration of 2×10⁹ cells/mL (RBCs).
In V-bottom 96-well plates the following reagents were added to a final volume of […] of 1× Veronal buffer with 0.1% gelatin, 100 μL aptamer, 30 μL of C1q-depleted human serum and 20 μL RBCs. This mixture was incubated for 25 minutes at room temperature, then the reaction was stopped by the addition of 5 μL of 500 mM EDTA. The plate was centrifuged for 5 minutes at 500×g at room temperature, then 100 μL of supernatant was removed and the extent of RBC lysis was determined by measuring absorbance at 405 nm.
C1-C3 identified in Example 1, a non-specific control oligo (C8), and one anti-fD Fab antibody fragment as described in Example 1 (AFD) were incubated with C1q-depleted human serum to allow binding to fD present in the serum, then assayed for the ability to inhibit fD-dependent lysis of rabbit red blood cells (FIG. 11). […] IC₅₀ values for C1-C3, C8 and AFD are depicted in Table 14.

[3] = biological target: T1, complement factor D (fD); experiment: FP filter; double-filter nitrocellulose binding; 100 nM DNA, 5 uM fD; details: tags: 6xHis; label: end-labeled; potential G4
Method: as §1

T1 sequence (P00746 26-253): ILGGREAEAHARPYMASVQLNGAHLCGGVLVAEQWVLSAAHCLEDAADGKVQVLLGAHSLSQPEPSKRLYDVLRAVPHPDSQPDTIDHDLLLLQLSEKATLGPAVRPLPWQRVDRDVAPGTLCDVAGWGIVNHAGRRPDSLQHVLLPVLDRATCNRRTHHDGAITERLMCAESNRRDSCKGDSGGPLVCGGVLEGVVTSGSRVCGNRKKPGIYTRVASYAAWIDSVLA

B1: Aptamer 27 (rank 24) (ssDNA)
DNA: GTGACGACTGACATATCTGCGGGCGTCTGAGCGCATGGATGACCCACCGACAGATTGCGGCGTAGTTGAGTCTGAGTGCT
binding signal ([1]; non-G4): 0.7 % bound

B2: Aptamer 10 (rank 7) (ssDNA)
DNA: GTGACGACTGACATATCTGCCCTATAGGGGTGTGGGCGAGGGGTGGGTGGTAGGGCGGCTCGTAGTTGAGTCTGAGTGCT
binding signal ([1]; potential G4): 1.9 % bound

B3: C1 (Aptamer 1) (ssRNA)
RNA: GGGAGUGUGUACGAGGCAUUAGGCCGCCACCCAAACUGCAGUCCUCGUAAGUCUGCCUGGCGGCUUUGAUACUUGAUCGCCCUAGAAGC
modifications: 2'-F G; 2'-OMe A, C, U
IC50 [2]: 5.1 nM

B4: Aptamer 15 (rank 12) (ssDNA)
DNA: GTGACGACTGACATATCTGCTGCTTCCAGCGGTCATGATATGCACTGTCTGAAGCTCGGTCGTAGTTGAGTCTGAGTGCT
binding signal ([1]; non-G4): 0.4 % bound

B5: Aptamer 8 (rank 5) (ssDNA)
DNA: GTGACGACTGACATATCTGCTATTTTGGGGCCTGGGTGTTGGGGATTGGGGACTATGTGTCGTAGTTGAGTCTGAGTGCT
binding signal [3]: 60.3 % bound

B6: Aptamer 5 (rank 2) (ssDNA)
DNA: GTGACGACTGACATATCTGCGTTTGGGGTTGGGGCCTGGGAGTTTGGGGAGCAGAAAGGACGTAGTTGAGTCTGAGTGCT
binding signal [3]: 63 % bound

B7: Aptamer 7 (rank 4) (ssDNA)
DNA: GTGACGACTGACATATCTGCGGCGGTTGGGGTCGAAGGGCGAGGGGTGGGAGGTCGCCGTAGTTGAGTCTGAGTGCT
binding signal ([1]; potential G4): 3.2 % bound

B8: Aptamer 4 (rank 1) (ssDNA)
DNA: GTGACGACTGACATATCTGCTCCGAGGTTATTGGGGTTGGGGCCTGGGCGATTGGGGCCTCGTAGTTGAGTCTGAGTGCT
binding signal [3]: 58.3 % bound

B9: C2 (Aptamer 2) (ssRNA)
RNA: GGGAGUGUGUACGAGGCAUUAGUCCGCCGAAGUCUUUUGGCUCGGUUUUUUCAAGGUCGGCGGCUUUGAUACUUGAUCGCCCUAGAAGC
modifications: 2'-F G; 2'-OMe A, C, U
IC50 [2]: 3.3 nM

B10: C3 (Aptamer 3) (ssRNA)
RNA: GGGAGUGUGUACGAGGCAUUAGGCCGCCACCUCGUUUGAUUGCGGUUGUUCGGCCGCGGGCGGCUUUGAUACUUGAUCGCCCUAGAAGC
modifications: 2'-F G; 2'-OMe A, C, U
IC50 [2]: 7 nM

B11: Aptamer 12 (rank 9) (ssDNA)
DNA: GTGACGACTGACATATCTGCAAAAGTTAGATTGACATGGTATGCACCGTCTGAGGTTGGTCGTAGTTGAGTCTGAGTGCT
binding signal ([1]; non-G4): 1.6 % bound
